Results taken from publication PMC11751877.

Tests used:
[1] = target: ALK4-Fc (Fc-fused ALK4 ligand-binding domain); test: SPR; Biacore 3000, 25°C; about 500 RU of ALK4-Fc captured on anti-human IgG (Fc) CM5 chip, Fc-free Cripto-1 injected at varying concentrations; HBS/EPS with 0.5 M NaCl and 0.1% BSA, pH 7.4; KD = kd/ka
[2] = target: full-length Cripto-1-Fc (NEC-Fc), soluble full-length variant lacking the GPI anchor, fused to human IgG1 Fc (human); test: SPR; Biacore 3000, 25°C; about 500 RU of Cripto-1-Fc construct captured on anti-human IgG (Fc) CM5 chip, Nodal injected at several concentrations; HBS/EPS (0.01 M Hepes, 0.5 M NaCl, 3 mM EDTA, 0.005% Tween 20, pH 7.4) with 0.1% BSA; 50 μL/min; fitted to a 1:1 or bivalent analyte model, KD = kd/ka; apparent
[3] = target: Cripto-1 E-Fc (EGF-like domain fused to human IgG1 Fc) (human); test: as above
[4] = target: Cripto-1 EC-Fc (EGF-like and CFC domains fused to human IgG1 Fc) (human); test: as above
[5] = target: Cripto-1 NE-Fc (N-terminal and EGF-like domains fused to human IgG1 Fc) (human); test: as above

Chain of full-length Cripto-1-Fc (NEC-Fc), soluble full-length variant lacking the GPI anchor, fused to human IgG1 Fc (human) (P13385 31-163, stated change not applied): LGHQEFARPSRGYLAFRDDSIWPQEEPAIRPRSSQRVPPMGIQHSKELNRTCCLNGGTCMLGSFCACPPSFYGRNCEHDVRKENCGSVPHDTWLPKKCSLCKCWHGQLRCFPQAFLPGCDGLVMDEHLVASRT

## Fc-free Cripto-1 (soluble Cripto-1 from which the Fc fragment had been proteolytically removed) (domain or fragment)
[1]
  Kd: 79.9 nM
  koff: 0.00179 s⁻¹
  kon: 22400 M⁻¹ s⁻¹

B1: Nodal (ligand)
chain: HHLPDRSQLCRKVKFQVDFNLIGWGSWIIYPKQYNAYRCEGECPNPVGEEFHPTNHAYIQSLLKRYQPHRVPSTCCAPVKTKPLSMLYVDNGRVLLDHHKDMIVEECGCL
[2]
  Kd: 10.1 nM
  koff: 0.0116 s⁻¹
  kon: 1.14e+06 M⁻¹ s⁻¹
[3]
  Kd: 27.8 nM
  koff: 0.00541 s⁻¹
  kon: 195000 M⁻¹ s⁻¹
[4]
  Kd: 14.3 nM
  koff: 0.000404 s⁻¹
  kon: 28200 M⁻¹ s⁻¹
[5]
  Kd: 10.4 nM
  koff: 0.00104 s⁻¹
  kon: 34100 M⁻¹ s⁻¹
